Measurements published in paper PMC8837555, “CRISPR and biochemical screens identify MAZ as a cofactor in CTCF-mediated insulation at Hox clusters”.

T1: FLAG-MAZ (Mus musculus, UniProt P56671 1-477)
T1 sequence: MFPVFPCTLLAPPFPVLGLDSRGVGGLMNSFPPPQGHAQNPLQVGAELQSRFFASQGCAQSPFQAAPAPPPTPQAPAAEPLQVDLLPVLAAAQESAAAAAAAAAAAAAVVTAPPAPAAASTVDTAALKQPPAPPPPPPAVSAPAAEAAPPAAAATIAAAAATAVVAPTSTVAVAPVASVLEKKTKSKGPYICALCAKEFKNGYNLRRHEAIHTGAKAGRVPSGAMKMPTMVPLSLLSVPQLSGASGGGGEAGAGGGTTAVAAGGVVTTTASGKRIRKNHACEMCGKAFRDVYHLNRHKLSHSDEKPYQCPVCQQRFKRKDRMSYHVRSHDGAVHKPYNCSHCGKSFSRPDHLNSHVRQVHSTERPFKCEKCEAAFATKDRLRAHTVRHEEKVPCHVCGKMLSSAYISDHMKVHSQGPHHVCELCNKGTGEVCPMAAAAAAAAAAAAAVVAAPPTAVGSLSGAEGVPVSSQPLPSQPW


Biological target: T1, FLAG-MAZ
Experiment: EMSA; 1 mM ZnSO4, 5 mM MgCl2, salmon sperm DNA; 25 mM HEPES (pH not stated), 50 mM NaCl, 5% glycerol, 5 mM MgCl2, 1 mM ZnSO4, 2 μg salmon sperm DNA, 40 pM probe, 0.25-0.75 μg MAZ, 4 h at 30 °C; 5% gel, 0.25x
Settings: protein: recombinant; tags: FLAG (CβF vector); label: 32P (T4 PNK); blunt

Binder | binding result
maz.hoxa56.WT (dsDNA) DNA 1: GGAGTTGGGTGGAGGCAAGAGGGGTGGCGCGCGCGCCCTG DNA 2: CAGGGCGCGCGCGCCACCCCTCTTGCCTCCACCCAACTCC | binds
maz.hoxd48 (WT) (dsDNA) DNA 1: CCTGGGTGGGAGGGGAATGGGAGGACACAAGAGCCACCCGTTCTTCTGCCCCGCCTTCCACCTCAG DNA 2: CTGAGGTGGAAGGCGGGGCAGAAGAACGGGTGGCTCTTGTGTCCTCCCATTCCCCTCCCACCCAGG | binds
